According to US20260069689A1 (Regeneron, published 2026):

Legend:
SARS-COV-2 RBD-MMH [1] = target: SARS-COV-2 RBD-MMH (SARS-CoV-2); assay: SPR 37C, run with dissociation at pH 7.4
SARS-COV-2 RBD-MMH [2] = target: SARS-COV-2 RBD-MMH (SARS-CoV-2); assay: SPR 37C, run with dissociation at pH 5.0
[3] = target: human FcγR3a 176Val allotype receptor (human, UniProt P08637 17-254); assay: cell-based or functional assay

| Binder | RBD.mmh Bound at pH 7.4 (RU) (SARS-COV-2 RBD-MMH [1]) | koff (SARS-COV-2 RBD-MMH [1]) [s⁻¹] | RBD.mmh Bound at pH 7.4 (RU) (SARS-COV-2 RBD-MMH [2]) | koff (SARS-COV-2 RBD-MMH [2]) [s⁻¹] | t½ (SARS-COV-2 RBD-MMH [2]) [min] | EC50 (M), Jurkat/CD20/spike [3] [M] | Fold induction, Jurkat CD20 [3] [fold] | Fold induction, Jurkat/CD20/spike [3] [fold] |
| --- | --- | --- | --- | --- | --- | --- | --- | --- |
| mAb14232 (antibody) heavy: not shown light: QSALTQPPSASGSPGQSVTISCTATSSDVGNYNYVSWYQQHPGKAPKLMIYEVTKRPSGVPDRFSGSKSGNTASLTVSGLQAEDEADYYCSSYAGSWGVFGGGTKLTVLGQPKAAPSVTLFPPSSEELQANKATLVCLISDFYPGAVTVAWKADSSPVKAGVETTTPSKQSNNKYAASSYLSLTPEQWKSHRSYSCQVTHEGSTVEKTVAPTECS | 8.2 | 0.0311 | 10.1 | 0.000656 | 17.6 | 1.31e-10 | 1.2 | 10.8 |
| mAb14285 (antibody) heavy: not shown light: QSALTQPASVSGSPGQSITISCTGTSSDVESYNLVSWYQQHPGKAPKLMIYEGSKRPSGVSNRFSGSKSGNTASLTISGLQAEDEADYYCSSYAGSSTWVFGGGTKLTVLGQPKAAPSVTLFPPSSEELQANKATLVCLISDFYPGAVTVAWKADSSPVKAGVETTTPSKQSNNKYAASSYLSLTPEQWKSHRSYSCQVTHEGSTVEKTVAPTECS | 64.2 | 0.0258 | 51.5 | 0.0025 | 4.6 | 2.43e-10 | 1.1 | 11 |
| mAb14290 (antibody) heavy: not shown light: EIVLTQSPGTLSLSPGERATLSCRASQSVNNNYLAWYQQKPGQTPRLLIYGASSRATGIPDRFSGSGSGTDFTLTITRLEPEDFAVYHCQQYGRSPTTFGQGTRLEIKRTVAAPSVFIFPPSDEQLKSGTASVVCLLNNFYPREAKVQWKVDNALQSGNSQESVTEQDSKDSTYSLSSTLTLSKADYEKHKVYACEVTHQGLSSPVTKSFNRGEC | – | – | – | – | – | 3.42e-09 | 1 | 9.5 |
| mAb14291 (antibody) heavy: not shown light: DIVMTQSPLSLPVTPGEPASISCRSSQSLLHSNGYNYINWYLQKPGQSPQLLMYLGSNRASGVPDRFSGSGSGTDSTLKISRVEAEDAGVYYCMQTRQTPYTFGQGTKLEIKRTVAAPSVFIFPPSDEQLKSGTASVVCLLNNFYPREAKVQWKVDNALQSGNSQESVTEQDSKDSTYSLSSTLTLSKADYEKHKVYACEVTHQGLSSPVTKSFNRGEC | – | – | – | – | – | 3.02e-10 | 1.1 | 9.7 |
| mAb14295 (antibody) heavy: not shown light: DIQMTQSPSSLSASVGDRVTITCRASQSINTYLNWYQQKPGKAPNLLIDGASSLQSGVPSRFSGSGSGTDFILTISSLRPEDFATYYCQQSYSIPLTFGGGTRVEIKRTVAAPSVFIFPPSDEQLKSGTASVVCLLNNFYPREAKVQWKVDNALQSGNSQESVTEQDSKDSTYSLSSTLTLSKADYEKHKVYACEVTHQGLSSPVTKSFNRGEC | – | – | – | – | – | 1.93e-10 | 1 | 11.5 |
| mAb14314 (antibody) heavy: not shown light: QSVLTQPPSVSAAPGQKVTISCSGSISNIGNNYVSWYQQLPGTAPKLLIYDNDKRPSGIPDRFSGSRSGTSATLGITGLQTGDEADYYCGTWDSSLTAYVFGTGTKVTVLGQPKAAPSVTLFPPSSEELQANKATLVCLISDFYPGAVTVAWKADSSPVKAGVETTTPSKQSNNKYAASSYLSLTPEQWKSHRSYSCQVTHEGSTVEKTVAPTECS | – | – | – | – | – | – | 1.1 | 3.9 |
